Target: T1, Grb2 labeled with Alexa Fluor 647 (UniProt P62993 1-217, Alexa Fluor 647 C2 maleimide on a surface cysteine (at most one per molecule; about 17% labeling overall))
T1 construct: The labeled cysteine is not identified; Only about 17% of the preparation carries the dye; also called Grb2-AlexaFluor647; source: E. coli BL21(DE3), purified (HisTrap, TEV cleavage, gel filtration), labeled by maleimide coupling; not shown: His6, N-terminal, cleaved
Assay: TIRF microscopy of recruitment to supported-lipid bilayers; N-terminally His-tagged Btk constructs tethered to bilayers with 4% DGS-NTA(Ni), 96% DOPC, washed after equilibration; Grb2-Alexa Fluor 647 added; fluorescence at the membrane over time
Conditions: both partners purified

binding result: binds
B1: His-tagged Btk proline-rich linker (domain or fragment, human, UniProt Q06187 171-214, looked up)
chain: RNGSLKPGSSHRKTKKPLPPTPEEDQILKKPLPPEPAAAPVSTS
notes: Btk, human, residues 171-214 (proline-rich linker between the PH-TH module and the SH3 domain); A SUMO module may also be kept, because the protease step was left out; also called the isolated proline-rich linker; source: E. coli BL21(DE3), purified (HisTrap, gel filtration; protease step left out); not shown: His6, N-terminal, kept

— article PMC10132808, “Stimulation of the catalytic activity of the tyrosine kinase Btk by the adaptor protein Grb2” (eLife, 2023)
